# Reference: patent US20100316645A1 (Hoffmann-La Roche, published 2010)
# Target: T1, recombinant human VEGF165 (full-length VEGF165-His protein, R&D Systems; rhVEGF, R&D Systems Cat.-No. 293-VE) (human, UniProt P15692-4 27-191)
# T1 construct: The ELISA method names 'full-length VEGF165-His protein', and the Biacore method names rhVEGF (R&D 293-VE); also called VEGF-A
# Test: ELISA and Biacore (SPR), including simultaneous binding (bridging ELISA, SPR sandwich)
# Procedure: Unbound Streptavidin-POD conjugate is washed away with three-six times 300 μl PBST (0.2% Tween 20) and bound Strepatavidin-POD conjugate is detected by addition of 100 μL ABTS/well. Determination of absorbance is performed on a Tecan Fluor Spectrometer at a measurement wavelength of 405 nm (reference wavelength 492 nm).
# In order to further corroborate the data from the bridging ELISA an additional assay is established to confirm simultaneous binding to VEGF and Ang-2 using surface plasmon resonance technology on a Biacore T100 instrument according to the following protocol and analyzed using the T100 software package (T100 Control, Version 2.01, T100 Evaluation, Version 2.01, T100 Kinetics Summary, Version 1.01): Ang-2 is captured with a capture level of 2000-1700 RU in PBS, 0.005% (v/v) Tween20 running buffer via a PentaHisAntibody (PentaHis-Ab BSA-free, Qiagen No. 34660) that is immobilized on a CM5 chip via amine coupling (BSA-free). HBS-N buffer served as running buffer during coupling, activation is done by mixture of EDC/NHS. The PentaHis-Ab BSA-free Capture-Antibody is diluted in coupling buffer NaAc, pH 4.5, c=30 μg/mL, finally still activated carboxyl groups are blocked by injection of 1 M Ethanolamine; ligand densities of 5000 and 17000 RU are tested. Ang-2 with a concentration of 500 nM is captured by the PentaHis-Ab at a flow of 5 μL/min diluted with running buffer+1 mg/mL BSA. […] For this sake, the bispecific tetravalent <VEGF-Ang-2> antibody is bound to Ang-2 at a flow of 50 μL/min and a concentration of 100 nM, diluted with running buffer+1 mg/mL BSA and simultaneous binding is detected by incubation with VEGF (rhVEGF, R&D-Systems Cat.-No, 293-VE) in PBS+0.005% (v/v) Tween20 running buffer at a flow of 50 μL/min and a VEGF concentration of 150 nM. Association time 120 sec, dissociation time 1200 sec. Regeneration is done after each cycle at a flow of 50 μL/min with 2×10 mM Glycin pH 2.0 and a contact time of 60 sec. […] Blanks for each Ab are measured with rhVEGF concentration “0”.
# T1 sequence (P15692 other isoform, or with tags, fused parts or gaps limits assumed): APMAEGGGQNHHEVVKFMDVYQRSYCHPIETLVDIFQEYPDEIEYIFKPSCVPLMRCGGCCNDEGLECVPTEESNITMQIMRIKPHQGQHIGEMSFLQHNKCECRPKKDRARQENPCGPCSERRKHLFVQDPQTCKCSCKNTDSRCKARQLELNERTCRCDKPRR
row,binding result,Binder
1,binds,"bispecific tetravalent antibody recognizing Ang-2 and VEGF-A of Example 1 (<VEGF> VH-CL fused via (G4S)4-connector to the C-terminus of the <Ang-2> heavy chain) (bispecific antibody, human IgG1, kappa, Tetravalent, expressed in HEK293F from three plasmids; also called bispecific tetravalent <VEGF-Ang-2> antibody; <Ang-2, VEGF> bispecific tetravalent antibody) heavy: not shown light: QPGLTQPPSVSVAPGQTARITCGGNNIGSKSVHWYQQKPGQAPVLVVYDDSDRPSGIPERFSGSNSGNTATLTISRVEAGDEADYYCQVWDSSSDHYVFGTGTKVTVLRTVAAPSVFIFPPSDEQLKSGTASVVCLLNNFYPREAKVQWKVDNALQSGNSQESVTEQDSKDSTYSLSSTLTLSKADYEKHKVYACEVTHQGLSSPVTKSFNRGEC DIQMTQSPSSLSASVGDRVTITCSASQDISNYLNWYQQKPGKAPKVLIYFTSSLHSGVPSRFSGSGSGTDFTLTISSLQPEDFATYYCQQYSTVPWTFGQGTKVEIKSSASTKGPSVFPLAPSSKSTSGGTAALGCLVKDYFPEPVTVSWNSGALTSGVHTFPAVLQSSGLYSLSSVVTVPSSSLGTQTYICNVNHKPSNTKVDKKVEPKSC"
2,binds,"bispecific tetravalent antibody recognizing Ang-2 and VEGF-A of Example 2 (<VEGF> VH-CL fused via (G4S)4-connector to the N-terminus of the <Ang-2> heavy chain) (bispecific antibody, human IgG1, kappa, Tetravalent, expressed in HEK293F from three plasmids; also called bispecific tetravalent <VEGF-Ang-2> antibody; <Ang-2, VEGF> bispecific tetravalent antibody) heavy: not shown light: QPGLTQPPSVSVAPGQTARITCGGNNIGSKSVHWYQQKPGQAPVLVVYDDSDRPSGIPERFSGSNSGNTATLTISRVEAGDEADYYCQVWDSSSDHYVFGTGTKVTVLRTVAAPSVFIFPPSDEQLKSGTASVVCLLNNFYPREAKVQWKVDNALQSGNSQESVTEQDSKDSTYSLSSTLTLSKADYEKHKVYACEVTHQGLSSPVTKSFNRGEC DIQMTQSPSSLSASVGDRVTITCSASQDISNYLNWYQQKPGKAPKVLIYFTSSLHSGVPSRFSGSGSGTDFTLTISSLQPEDFATYYCQQYSTVPWTFGQGTKVEIKSSASTKGPSVFPLAPSSKSTSGGTAALGCLVKDYFPEPVTVSWNSGALTSGVHTFPAVLQSSGLYSLSSVVTVPSSSLGTQTYICNVNHKPSNTKVDKKVEPKSC"
3,binds,"bispecific tetravalent antibody recognizing Ang-2 and VEGF-A of Example 3 (<Ang-2> VH-CH1 fused via (G4S)4-connector to the C-terminus of the heavy chain of a … (bispecific antibody, Tetravalent, expressed in HEK293F from three plasmids; also called bispecific tetravalent <VEGF-Ang-2> antibody; <Ang-2, VEGF> bispecific tetravalent antibody) heavy: not shown light: QPGLTQPPSVSVAPGQTARITCGGNNIGSKSVHWYQQKPGQAPVLVVYDDSDRPSGIPERFSGSNSGNTATLTISRVEAGDEADYYCQVWDSSSDHYVFGTGTKVTVLRTVAAPSVFIFPPSDEQLKSGTASVVCLLNNFYPREAKVQWKVDNALQSGNSQESVTEQDSKDSTYSLSSTLTLSKADYEKHKVYACEVTHQGLSSPVTKSFNRGEC DIQMTQSPSSLSASVGDRVTITCSASQDISNYLNWYQQKPGKAPKVLIYFTSSLHSGVPSRFSGSGSGTDFTLTISSLQPEDFATYYCQQYSTVPWTFGQGTKVEIKSSASTKGPSVFPLAPSSKSTSGGTAALGCLVKDYFPEPVTVSWNSGALTSGVHTFPAVLQSSGLYSLSSVVTVPSSSLGTQTYICNVNHKPSNTKVDKKVEPKSC"
